In patent publication US20140018297A1 (Novo Nordisk, published 2014):

T1: FVIII (as used in the competition ELISA of Example 21; form not stated) (UniProt P00451 20-2351, limits assumed)
T1 sequence (looked up): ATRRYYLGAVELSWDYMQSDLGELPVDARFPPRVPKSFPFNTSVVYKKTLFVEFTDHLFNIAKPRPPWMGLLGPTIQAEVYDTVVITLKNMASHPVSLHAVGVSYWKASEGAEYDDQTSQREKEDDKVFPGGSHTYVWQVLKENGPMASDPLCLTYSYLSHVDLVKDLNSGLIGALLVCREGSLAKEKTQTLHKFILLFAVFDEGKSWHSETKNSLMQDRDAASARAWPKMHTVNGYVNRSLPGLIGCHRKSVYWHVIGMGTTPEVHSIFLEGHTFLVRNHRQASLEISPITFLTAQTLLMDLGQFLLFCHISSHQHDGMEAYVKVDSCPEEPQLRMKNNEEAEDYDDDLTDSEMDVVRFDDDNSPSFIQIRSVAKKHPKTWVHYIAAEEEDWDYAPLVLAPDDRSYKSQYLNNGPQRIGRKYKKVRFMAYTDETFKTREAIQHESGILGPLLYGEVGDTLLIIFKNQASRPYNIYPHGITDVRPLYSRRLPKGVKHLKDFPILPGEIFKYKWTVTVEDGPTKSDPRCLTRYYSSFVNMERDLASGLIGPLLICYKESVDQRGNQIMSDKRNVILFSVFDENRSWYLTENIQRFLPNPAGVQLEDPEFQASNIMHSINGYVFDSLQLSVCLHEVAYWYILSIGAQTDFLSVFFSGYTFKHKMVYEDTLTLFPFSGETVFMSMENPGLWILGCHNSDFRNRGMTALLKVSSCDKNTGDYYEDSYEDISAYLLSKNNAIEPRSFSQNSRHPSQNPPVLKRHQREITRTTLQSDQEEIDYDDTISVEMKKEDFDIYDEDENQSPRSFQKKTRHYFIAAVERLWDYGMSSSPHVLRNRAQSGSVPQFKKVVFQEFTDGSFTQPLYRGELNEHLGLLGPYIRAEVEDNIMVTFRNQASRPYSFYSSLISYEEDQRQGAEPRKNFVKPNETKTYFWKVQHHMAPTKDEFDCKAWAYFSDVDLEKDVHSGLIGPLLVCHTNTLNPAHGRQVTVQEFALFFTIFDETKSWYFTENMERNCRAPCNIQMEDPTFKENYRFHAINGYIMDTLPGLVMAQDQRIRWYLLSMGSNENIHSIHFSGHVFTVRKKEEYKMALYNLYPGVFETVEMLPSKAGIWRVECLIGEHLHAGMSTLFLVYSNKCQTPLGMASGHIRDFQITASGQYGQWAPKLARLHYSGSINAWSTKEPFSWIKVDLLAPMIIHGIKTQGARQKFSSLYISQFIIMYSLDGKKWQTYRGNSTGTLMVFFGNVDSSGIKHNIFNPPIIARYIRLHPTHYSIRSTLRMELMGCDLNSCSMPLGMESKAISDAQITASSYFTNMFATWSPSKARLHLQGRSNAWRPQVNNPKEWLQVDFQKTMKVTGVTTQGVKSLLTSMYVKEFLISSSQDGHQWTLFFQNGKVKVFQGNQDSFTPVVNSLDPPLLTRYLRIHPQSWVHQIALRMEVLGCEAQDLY

T2: Fluorescent labelled FVIII (Oregon green-FVIII) (UniProt P00451 20-2351, limits assumed, Oregon green label)
T2 sequence (looked up): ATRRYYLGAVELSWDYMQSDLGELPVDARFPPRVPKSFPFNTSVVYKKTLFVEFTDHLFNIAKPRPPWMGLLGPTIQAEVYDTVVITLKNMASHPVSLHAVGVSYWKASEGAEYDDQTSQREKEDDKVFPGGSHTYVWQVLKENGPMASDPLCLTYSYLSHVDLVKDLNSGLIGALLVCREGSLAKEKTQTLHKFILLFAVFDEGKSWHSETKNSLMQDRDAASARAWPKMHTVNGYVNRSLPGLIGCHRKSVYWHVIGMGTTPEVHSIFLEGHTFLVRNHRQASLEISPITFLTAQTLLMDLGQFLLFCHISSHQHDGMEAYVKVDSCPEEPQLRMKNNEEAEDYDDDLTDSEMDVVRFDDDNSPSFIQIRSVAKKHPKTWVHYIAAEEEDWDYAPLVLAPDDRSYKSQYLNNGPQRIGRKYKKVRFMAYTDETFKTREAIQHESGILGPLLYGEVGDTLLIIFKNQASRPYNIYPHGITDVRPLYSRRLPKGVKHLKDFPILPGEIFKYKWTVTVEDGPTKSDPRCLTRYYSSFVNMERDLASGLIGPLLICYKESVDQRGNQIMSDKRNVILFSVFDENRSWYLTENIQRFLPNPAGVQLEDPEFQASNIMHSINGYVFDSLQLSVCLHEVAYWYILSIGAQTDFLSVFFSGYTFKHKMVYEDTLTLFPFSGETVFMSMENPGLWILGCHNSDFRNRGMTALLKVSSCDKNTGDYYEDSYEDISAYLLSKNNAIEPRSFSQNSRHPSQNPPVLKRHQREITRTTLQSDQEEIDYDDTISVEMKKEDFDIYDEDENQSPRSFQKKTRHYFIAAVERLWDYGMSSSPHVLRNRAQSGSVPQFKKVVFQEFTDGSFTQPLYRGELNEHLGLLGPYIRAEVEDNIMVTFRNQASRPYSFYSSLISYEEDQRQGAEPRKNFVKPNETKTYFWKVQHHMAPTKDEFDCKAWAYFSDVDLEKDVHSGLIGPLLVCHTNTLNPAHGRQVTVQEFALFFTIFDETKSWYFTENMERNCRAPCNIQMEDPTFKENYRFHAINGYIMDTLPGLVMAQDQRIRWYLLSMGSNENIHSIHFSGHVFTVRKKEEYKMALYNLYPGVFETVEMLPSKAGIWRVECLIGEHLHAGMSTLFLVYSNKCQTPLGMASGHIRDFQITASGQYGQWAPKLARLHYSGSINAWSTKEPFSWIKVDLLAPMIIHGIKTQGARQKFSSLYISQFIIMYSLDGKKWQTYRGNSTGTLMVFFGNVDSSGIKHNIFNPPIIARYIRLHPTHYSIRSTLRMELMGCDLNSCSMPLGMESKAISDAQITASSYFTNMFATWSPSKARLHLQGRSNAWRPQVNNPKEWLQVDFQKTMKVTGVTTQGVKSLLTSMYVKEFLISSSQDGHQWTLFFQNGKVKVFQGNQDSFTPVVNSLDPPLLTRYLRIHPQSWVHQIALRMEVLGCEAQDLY

T3: FVIII (N8, turoctocog alfa), B domain truncated FVIII (human, UniProt P00451 20-2351)
T3 construct: also called F8; F8-500
T3 sequence: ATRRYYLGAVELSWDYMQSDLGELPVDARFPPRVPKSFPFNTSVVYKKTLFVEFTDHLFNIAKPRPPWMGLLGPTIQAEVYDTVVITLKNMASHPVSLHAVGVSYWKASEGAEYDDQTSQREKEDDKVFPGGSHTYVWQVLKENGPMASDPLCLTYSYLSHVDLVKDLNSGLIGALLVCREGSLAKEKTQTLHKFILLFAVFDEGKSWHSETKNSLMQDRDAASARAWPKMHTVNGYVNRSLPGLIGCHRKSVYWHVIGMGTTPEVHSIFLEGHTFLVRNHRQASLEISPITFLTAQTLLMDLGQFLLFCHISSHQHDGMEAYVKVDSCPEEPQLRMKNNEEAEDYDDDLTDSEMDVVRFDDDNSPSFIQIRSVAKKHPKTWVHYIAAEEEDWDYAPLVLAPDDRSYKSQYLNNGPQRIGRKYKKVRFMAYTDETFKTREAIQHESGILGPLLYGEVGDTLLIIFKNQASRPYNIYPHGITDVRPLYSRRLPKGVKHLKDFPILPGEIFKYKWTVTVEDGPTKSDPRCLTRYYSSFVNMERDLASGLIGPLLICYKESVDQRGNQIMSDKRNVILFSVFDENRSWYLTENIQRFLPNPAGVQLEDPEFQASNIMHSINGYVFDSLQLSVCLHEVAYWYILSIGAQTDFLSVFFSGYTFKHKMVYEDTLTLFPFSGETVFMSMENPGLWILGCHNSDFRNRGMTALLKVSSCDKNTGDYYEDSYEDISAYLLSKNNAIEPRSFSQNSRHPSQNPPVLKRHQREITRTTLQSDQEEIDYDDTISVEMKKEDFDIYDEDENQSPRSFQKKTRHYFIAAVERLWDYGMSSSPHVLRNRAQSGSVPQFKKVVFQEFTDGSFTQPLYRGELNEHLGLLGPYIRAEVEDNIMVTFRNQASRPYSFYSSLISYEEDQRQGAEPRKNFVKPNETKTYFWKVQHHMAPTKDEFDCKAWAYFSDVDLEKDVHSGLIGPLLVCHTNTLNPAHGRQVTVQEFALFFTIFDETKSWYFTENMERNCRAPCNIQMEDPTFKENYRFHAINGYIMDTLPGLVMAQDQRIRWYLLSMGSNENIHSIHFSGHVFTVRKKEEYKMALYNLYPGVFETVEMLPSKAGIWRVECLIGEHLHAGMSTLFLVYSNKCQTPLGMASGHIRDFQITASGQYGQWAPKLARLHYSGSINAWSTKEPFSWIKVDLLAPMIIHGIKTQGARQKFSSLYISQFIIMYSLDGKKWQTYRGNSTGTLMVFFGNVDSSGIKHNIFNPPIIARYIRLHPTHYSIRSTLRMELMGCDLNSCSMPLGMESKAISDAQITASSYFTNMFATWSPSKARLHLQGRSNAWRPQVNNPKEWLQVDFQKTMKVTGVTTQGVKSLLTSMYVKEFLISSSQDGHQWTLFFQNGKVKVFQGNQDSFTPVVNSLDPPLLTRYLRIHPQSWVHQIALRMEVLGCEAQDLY


What was measured:
[1] = target: T1, FVIII (as used in the competition ELISA …); experiment: competition ELISA; competitor coated human VWF; FVIII 1 nM pre-incubated with the fragment
Procedure: In order to investigate the binding of the different VWF fragments to FVIII the following method is used. Briefly, human VWF is coated in a microtiterplate and incubated overnight at 4° C. After blocking, a solution with pre-incubated FVIII (1 nM) and VWF/VWF-fragment is added to the plate, followed by detection with biotinylated anti FVIII antibody and streptavidin-peroxidase S-POD (1:20000). The absorbance is measured at 450/620 nm.

[2] = target: T2, Fluorescent labelled FVIII (Oregon …); experiment: cell-based or functional assay
[3] = target: T3, FVIII (N8, turoctocog alfa), B domain …; experiment: SEC-UV (280 nm), Waters Biosuite 4.6x300 mm, 0.3 ml/min, 155 mM NaCl, 10 mM calcium acetate, 10% isopropanol, 25 °C; FVIII 10 µM, fragment 20 µM, 1:2 mixture
Procedure: Size-exclusion chromatography was performed on a Waters Biosuite 4.6×300 mm column using a flow rate of 0.3 ml/min and a running buffer of 155 mM NaCl, 10 mM Calciumacetat, 10% Isopropanol at 25° C. The absorbance of the effluent was monitored by a UV detector at 280 nm. SEC-UV characterization were performed of FVIII, TIL′/E′/D3/A1 III, TIL′/E′/D3 II, and 1:2 complexes of FVIII—TIL′/E′/D3/A1 III and of FVIII—TIL′/E′/D3 II. Samples of FVIII 10 μM, TIL′/E′/D3/A1 III 20 μM, TIL′/E′/D3 II 20 μM, and in complex were prepared and 15 μL were loaded on to the column.

Row | IC50 [1] [µM] | IC50 (nM), FVIII uptake in dendritic cells [2] [nM] | binding result [3] | Binder
1 | 20 | – | – | VWF(864-1250)-C1099/1142S-ALA-HPC4 monomer (other, also called 0001; D3 I) DATCSTIGMAHYLTFDGLKYLFPGECQYVLVQDYCGSNPGTFRILVGNKGCSHPSVKCKKRVTILVEGGEIELFDGEVNVKRPMKDETHFEVVESGRYIILLLGKALSVVWDRHLSISVVLKQTYQEKVCGLCGNFDGIQNNDLTSSNLQVEEDPVDFGNSWKVSSQCADTRKVPLDSSPATCHNNIMKQTMVDSSCRILTSDVFQDCNKLVDPEPYLDVCIYDTCSCESIGDCASFCDTIAAYAHVCAQHGKVVTWRTATLCPQSCEERNLRENGYESEWRYNSCAPACQVTCQHPEPLACPVQCVEGCHAHCPPGKILDELLQTCVDPEDCPVCEVAGRRFASGKKVTLNPSDPEHCQICHCDVVNLTCEACQEPGGLVVPPTDAALAEDQVDPRLIDGK
2 | 0.012 | 31 | – | VWF(764-1250)-C1099/1142S-ALA-HPC4 monomer (other, also called TIL′/E′/D3 I) SLSCRPPMVKLVCPADNLRAEGLECTKTCQNYDLECMSMGCVSGCLCPPGMVRHENRCVALERCPCFHQGKEYAPGETVKIGCNTCVCQDRKWNCTDHVCDATCSTIGMAHYLTFDGLKYLFPGECQYVLVQDYCGSNPGTFRILVGNKGCSHPSVKCKKRVTILVEGGEIELFDGEVNVKRPMKDETHFEVVESGRYIILLLGKALSVVWDRHLSISVVLKQTYQEKVCGLCGNFDGIQNNDLTSSNLQVEEDPVDFGNSWKVSSQCADTRKVPLDSSPATCHNNIMKQTMVDSSCRILTSDVFQDCNKLVDPEPYLDVCIYDTCSCESIGDCASFCDTIAAYAHVCAQHGKVVTWRTATLCPQSCEERNLRENGYESEWRYNSCAPACQVTCQHPEPLACPVQCVEGCHAHCPPGKILDELLQTCVDPEDCPVCEVAGRRFASGKKVTLNPSDPEHCQICHCDVVNLTCEACQEPGGLVVPPTDAALAEDQVDPRLIDGK
3 | – | – | binds | VWF(764-1261)-C1099/1142S-ALA-HPC4 monomer (other, also called 2309; TIL′/E′/D3 II) SLSCRPPMVKLVCPADNLRAEGLECTKTCQNYDLECMSMGCVSGCLCPPGMVRHENRCVALERCPCFHQGKEYAPGETVKIGCNTCVCQDRKWNCTDHVCDATCSTIGMAHYLTFDGLKYLFPGECQYVLVQDYCGSNPGTFRILVGNKGCSHPSVKCKKRVTILVEGGEIELFDGEVNVKRPMKDETHFEVVESGRYIILLLGKALSVVWDRHLSISVVLKQTYQEKVCGLCGNFDGIQNNDLTSSNLQVEEDPVDFGNSWKVSSQCADTRKVPLDSSPATCHNNIMKQTMVDSSCRILTSDVFQDCNKLVDPEPYLDVCIYDTCSCESIGDCASFCDTIAAYAHVCAQHGKVVTWRTATLCPQSCEERNLRENGYESEWRYNSCAPACQVTCQHPEPLACPVQCVEGCHAHCPPGKILDELLQTCVDPEDCPVCEVAGRRFASGKKVTLNPSDPEHCQICHCDVVNLTCEACQEPGGLVVPPTDAPVSPTTLYVEDALAEDQVDPRLIDGK
